Laboratory results as given in patent US7374920B2, “Ginkgo biloba levopimaradiene synthase” (priority 2001, dated 2008).
“Also recorded” adds a separate entry of the source.

How the values were obtained:
[1] = in vitro enzymatic assay of levopimaradiene synthase constructs expressed in E. coli BL21(DE3); type: biochemical, Escherichia coli
Method: The desired plasmids were prepared by ligating the mutated gene insert into the similarly digested vectors pET32c(+) (Novagen; Madison, Wis.) and pRS426GAL (Hua, 2000), a multiple copy yeast expression vector. These plasmids was expressed in E. coli BL21(DE3) (Novagen; Madison, Wis.). E. coli cells were grown in Luria-Bertani medium supplemented with 100 μg/mL ampicillin at 37° C. with shaking to OD600 ˜0.6. The following parameters were tested: isopropyl 1-thio-β-D-galactopyranoside (IPTG) concentration (50, 100, 250, 500, and 1000 μM); and temperature and time (20° C. for 2, 3, 4, 6, 21 hours, 22° C. for 6, 8, 16, 19, 22, 45 hours, and 30° C. for 3, 6 hours). The following assay conditions were tested to obtain maximum diterpene product yield: 30 mM HEPES (N-2-hydroxyethylpiperazine-N′-[…]), pH 6.9, 7.2, 7.6, 8.0; 30 mM Tris (tris(hydroxymethyl)aminomethane hydrochloride), pH 7.4, 7.8, 8.2; 1, 5, 10% glycerol; 1, 3, 5, 10, 20 mM DTT (dithiothreitol); 20 mM β-mercaptoethanol; 2, 5, 8% Triton X-100; 5% Tween 80; 0, 2, 7.5, 20, 50 mM MgCl2; 0, 30, 500, 1000 μM MnCl2; 2, 10, 13.3, 20, 40, 80, 200 μM GGDP; and 23° C. and 32° C. assay temperatures.
Optimal soluble protein production and diterpene yield were obtained with the following conditions. Cell cultures were induced with 1 mM IPTG at 20° C. with shaking for 6 hours and lysed by sonication in 30 mM HEPES, pH 7.2, 5 mM DTT, and 5% glycerol. The soluble fraction of the lysate (100 mg/mL) was incubated with 20 μM GGDP in 30 mM HEPES, pH 7.2, 5 mM DTT, 5% glycerol, 2 mM MgCl2, and 500 μM MnCl2 overnight at 32° C.
(§1) All in vitro reactions were extracted 3× with hexane and dried over MgSO4. The reaction was further extracted twice with diethyl ether and dried over MgSO4. Thereafter, the crude lysate was suspended in 100 mM Tris, pH 8.0 containing 2.9 units/mg apyrase (a dephosphorylating agent) and 10 units/μL calf intestinal alkaline phosphatase, incubated at 30° C. for 3 hours, and extracted with diethyl ether as noted above (Croteau and Cane, 1985). The crude reaction mixtures were eluted over SiO2, concentrated, and analyzed by GC and GC/MS.
(§2) Gas chromatography spectra were obtained on a Hewlett Packard 6890 Series GC System equipped with an Rtx-5 capillary column (Restek, 30 m×0.25 mm i.d., 0.10 μm df). The following separation conditions and temperature program were employed: injector port 250° C., FID 250° C., split ratio 39:1, helium flow 20 cm/s (0.6 mL/min), 150° C. hold 5 min, increase to 250° C. (5° C./min), hold 5 min. GC/MS spectra were obtained on a Hewlett-Packard 5890A instrument with a 30-m DB-5 ms column (J&W Scientific Inc., 0.25 mm i.d., 0.10 μm df). The following separation conditions and temperature program were employed: injector port 280° C., transfer lines: 280° C., helium flow at 30 cm/s (1 mL/min) with splitless injection at 150° C. hold 3 min, increase to 250° C. (5° C./min), hold 5 min. Mass spectra (m/z 50 to 500) were obtained on a VG ZAB-HF reverse-geometry double-focusing instrument at 70 eV with an electron-impact ion source (200° C.). Accelerating voltage was set to 8 kV and the resolution was 1000 (10% valley).
The skilled artisan recognizes that lysis and assay conditions should be optimized. Examples of parameters that can be adjusted to optimize conditions include altering buffer, pH, reductant, reductant concentration, metal cofactors, cofactor concentrations, glycerol concentrations, substrate concentrations, and assay temperatures. […] Maximum soluble protein production and diterpene yield were obtained with the following conditions. Cell cultures were induced with 1 mM IPTG at 20° C. with shaking for 6 hours and lysed by sonication in 30 mM HEPES, pH 7.2, 5 mM DTT, and 5% glycerol. The soluble fraction of the lysate (100 mg/1 mL) was incubated with 20 μM GGDP in 30 mM HEPES, pH 7.2, 5 mM DTT, 5% glycerol, 2 mM MgCl2, and 500 μM MnCl2 overnight at 32° C. […]

[2] = in vitro assay of levopimaradiene synthase constructs expressed in wild-type S. cerevisiae JBY575; type: biochemical, Saccharomyces cerevisiae; conditions: wild-type S. cerevisiae JBY575, galactose 48 hours, lysate with GGDP
Method: Expression in S. cerevisiae JBY575, which represents wild-type yeast, was observed. JBY575 cells transformed with pRS426GAL inserted with the putative levopimaradiene synthase were grown in synthetic complete medium lacking uracil and supplemented with 2% glucose and 1.5% agar at 30° C. to saturation and induced with galactose for 48 hours. Cells were harvested, resuspended in lysis buffer, and mixed by vortexing over glass beads. The lysate was assayed with 60 μM GGDP in the presence and absence of 0.2% and 5% Triton X-100.
as §1, §2
The skilled artisan recognizes that lysis and assay conditions should be optimized. Examples of parameters that can be adjusted to optimize conditions include altering buffer, pH, reductant, reductant concentration, metal cofactors, cofactor concentrations, glycerol concentrations, substrate concentrations, and assay temperatures. […] Maximum soluble protein production and diterpene yield were obtained with the following conditions. Cell cultures were induced with 1 mM IPTG at 20° C. with shaking for 6 hours and lysed by sonication in 30 mM HEPES, pH 7.2, 5 mM DTT, and 5% glycerol. The soluble fraction of the lysate (100 mg/1 mL) was incubated with 20 μM GGDP in 30 mM HEPES, pH 7.2, 5 mM DTT, 5% glycerol, 2 mM MgCl2, and 500 μM MnCl2 overnight at 32° C. Yeast expression was induced with galactose at 30° C. for 48 hours and the cells were lysed and assayed according to the conditions noted.

EHY18 yeast cells = assay: in vivo expression of GbLS constructs in yeast strain EHY18 that accumulates GGDP, GC quantitation of products; type: cell-based
Method: The yeast strain of the copending application employed was EHY18 (Hart, E., 2001) which was further transformed with multiple-copy yeast expression vectors comprising an isolated and purified nucleic acid sequence of GbLS or derivatives thereof, which are described herein under control of the GAL1 inducible promoter. Yeast cells were grown to saturation in 5 mL ScD-Leu-Ura at 30° C. Cells were harvested (1300×g, 2 min, 25° C.) and resuspended in 500 μL sterile Milli-Q H2O (2×). The washed cells were resuspended in 5 mL sterile Milli-Q H2O. An aliquot of the culture (5 μL) was added to a 25 mL Corex tube containing pre-prepared 2× resin and 5 mL ScG-Leu-Ura (4% galactose) and shaken at 30° C. for 6 days. Resin was collected by filtration through a Kontes chromatography column (1.7 cm diameter) and rinsed with dI H2O until eluent was clear. The resin was incubated in 2 mL ethanol for several minutes, eluted, and repeated 2×. The combined eluents were dissolved in approximately 3 mL dI H2O and extracted (3×) with 3 mL hexane. The combined extracts were concentrated under a stream of nitrogen. GC analysis (quantitation extrapolated from 0.2 mg/mL longifolene external standard) indicated the following product profile (obtained from triplicate measurement of three cultures): 0.61±0.20 mg/L levopimaradiene, 0.04±0.01 mg/L abietadiene, 0.15±0.05 mg/L abietatriene, 0.16±0.13 mg/L (+)-copalol, and 1.79±0.90 mg/L geranylgeraniol. GC/MS fragmentation confirmed the identity of each compound.
A large scale culture (1-L) was prepared by growing the yeast cells to saturation in 5 mL ScD-Leu-Ura at 30° C. Cells were harvested (1300×g, 2 min, 25° C.) and resuspended in 500 μL sterile Milli-Q H2O (2×). The washed cells were resuspended in 5 mL sterile Milli-Q H2O. An aliquot of the culture (1 mL) was added to a 2 L flask containing 1-L ScG-Leu-Ura (4% galactose) and 88.27 g resin in 120 mL Milli-Q H2O (pre-prepared). The resin was eluted with ethanol (3×100 mL with 20 min incubation periods), which was subsequently extracted (6×) with hexane. The combined extracts were dried over magnesium sulfate, filtered, and concentrated under reduced pressure. GC analysis (quantitation extrapolated from 0.2 mg/mL longifolene external standard) indicated the following product profile (obtained from triplicate measurement): 0.29±0.04 mg/L levopimaradiene, 0.04±0.02 mg/L abietadiene, 0.13±0.04 mg/L abietatriene, 0.11±0.02 mg/L (+)-copalol, and 0.56±0.03 mg/L geranylgeraniol. GC/MS analyses confirmed the production of the above noted diterpenes, which included hydrocarbons and an alcohol.
Further optimization studies employed the Ser61 construct. Factors influencing diterpene production included induction period and concentration of galactose and resin in the inducing medium.

B1: Leu^80: Ginkgo biloba levopimaradiene synthase truncated at Arg^79-Leu^80; amino acid sequence SEQ.ID.NO:37 (protein, listed as Ginkgo biloba)
chain: MLNADYHPAVWKDDFIDSLTSPNSHATSKSSVDETINKRIQTLVKEIQCMFQSMGDGETNPSAYDTAWVARIPSIDGSGAPQFPQTLQWILNNQLPDGSWGEECIFLAYDRVLNTLACLLTLKIWNKGDIQVQKGVEFVRKHMEEMKDEADNHRPSGFEVVFPAMLDEAKSLGLDLPYHLPFISQIHQKRQKKLQKIPLNVLHNHQTALLYSLEGLQDVVDWQEITNLQSRDGSFLSSPASTACVFMHTQNKRCLHFLNFVLSKFGDYVPCHYPLDLFERLWAVDTVERLGIDRYFKKEIKESLDYVYRYWDAERGVGWARCNPIPDVDDTAMGLRILRLHGYNVSSDVLENFRDEKGDFFCFAGQTQIGVTDNLNLYRCSQVCFPGEKIMEEAKTFTTNHLQNALAKNNAFDKWAVKKDLPGEVEYAIKYPWHRSMPRLEARSYIEQFGSNDVWLGKTVYKMLYVSNEKYLELAKLDFNMVQALHQKETQHIVSWWRESGFNDLTFTRQRPVEMYFSVAVSMFEPEFAACRIAYAKTSCLAVILDDLYDTHGSLDDLKLFSEAVRRWDISVLDSVRDNQLKVCFLGLYNTVNGFGKDGLKEQGRDVLGYLRKVWEGLLASYTKEAEWSAAKYVPTFNEYVENAKVSIALATVVLNSIFFTGELLPDYILQQVDLRSKFLHLVSLTGRLINDTKTYQAERNRGELVSSVQCYMRENPECTEEEALSHVYGIIDNALKELNWELANPASNAPLCVRRLLFNTARVMQLFYMYRDGFGISDKEMKDHVSRTLFDPVA
With B1 the “diterpene product on bacterial expression” value ([1]; E. coli BL21(DE3), soluble lysate fraction, 20 μM GGDP, overnight at 32° C., GC and GC/MS) was “produced levopimaradiene as the exclusive diterpene hydrocarbon; also recorded: provided enzymatic activity capable of cyclizing geranylgeranyl diphosphate to levopimaradiene”, the “diterpene product on yeast expression” value [2] was “yielded levopimaradiene as the sole diterpene; also recorded: yielded levopimaradiene synthase activity” and the “diterpene production relative to wild-type synthase” value (EHY18 yeast cells; EHY18) was “approximately four”. The “diterpene products on expression in EHY18” value (EHY18 yeast cells; GC, GC/MS) was “produced (+)-copalol, levopimaradiene, abietadiene, and abietatriene”.

B2: Levopimaradiene synthase: enzyme which catalyzes the synthesis of levopimaradiene from geranylgeranyl diphosphate; SEQ.ID.NO:2 (protein, listed as Ginkgo biloba)
chain: MAGVLFANLPCSLQLSPKVPFRQSTNILIPFHKRSSFGFNAQHCVRSHLRLRWNCVGIHASAAETRPDQLPQEERFVSRLNADYHPAVWKDDFIDSLTSPNSHATSKSSVDETINKRIQTLVKEIQCMFQSMGDGETNPSAYDTAWVARIPSIDGSGAPQFPQTLQWILNNQLPDGSWGEECIFLAYDRVLNTLACLLTLKIWNKGDIQVQKGVEFVRKHMEEMKDEADNHRPSGFEVVFPAMLDEAKSLGLDLPYHLPFISQIHQKRQKKLQKIPLNVLHNHQTALLYSLEGLQDVVDWQEITNLQSRDGSFLSSPASTACVFMHTQNKRCLHFLNFVLSKFGDYVPCHYPLDLFERLWAVDTVERLGIDRYFKKEIKESLDYVYRYWDAERGVGWARCNPIPDVDDTAMGLRILRLHGYNVSSDVLENFRDEKGDFFCFAGQTQIGVTDNLNLYRCSQVCFPGEKIMEEAKTFTTNHLQNALAKNNAFDKWAVKKDLPGEVEYAIKYPWHRSMPRLEARSYIEQFGSNDVWLGKTVYKMLYVSNEKYLELAKLDFNMVQALHQKETQHIVSWWRESGFNDLTFTRQRPVEMYFSVAVSMFEPEFAACRIAYAKTSCLAVILDDLYDTHGSLDDLKLFSEAVRRWDISVLDSVRDNQLKVCFLGLYNTVNGFGKDGLKEQGRDVLGYLRKVWEGLLASYTKEAEWSAAKYVPTFNEYVENAKVSIALATVVLNSIFFTGELLPDYILQQVDLRSKFLHLVSLTGRLINDTKTYQAERNRGELVSSVQCYMRENPECTEEEALSHVYGIIDNALKELNWELANPASNAPLCVRRLLFNTARVMQLFYMYRDGFGISDKEMKDHVSRTLFDPVA
With B2 the “metal cofactor requirement of synthase activity” value ([1]; MgCl2 and MnCl2 varied) was “independent of magnesium but required manganese cofactor for catalysis” and the “increase in levopimaradiene yield relative to the bacterial expression system” value (EHY18 yeast cells; EHY18) was “three- to six”.
